The target of series [1] is recombinant human endocan (Human active Endocan 1-165, SEQ ID NO: 1) (human) (UniProt Q9NQ30). The series is described as follows: cell-based or functional assay.
Series [2] deals with human leukocyte integrin LFA-1 (CD11a/CD18) on Jurkat cells or human NK cells (human) (UniProt P20701). The series is described as follows: cell-based or functional assay.
In series [3] the target is T1, recombinant human endocan (Human active Endocan 1-165, SEQ ID NO: 1).
T1 chain: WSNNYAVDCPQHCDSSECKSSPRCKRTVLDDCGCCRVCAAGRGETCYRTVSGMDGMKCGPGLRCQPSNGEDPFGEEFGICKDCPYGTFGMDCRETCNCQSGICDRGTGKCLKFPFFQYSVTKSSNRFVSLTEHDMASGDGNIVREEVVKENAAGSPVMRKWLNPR

Series [4] concerns the target T2, human leukocyte integrin LFA-1 (CD11a/CD18) on Jurkat cells or human NK cells (human, UniProt P20701 26-1170; P05107 23-769).
T2 construct: whole, on cells; also called CD11a/CD18 integrin; endocan's receptor
The series is described as follows: co-immunoprecipitation from Jurkat lysates with HI111 and mab24. The procedure: FIG. 4B: Non glycanable endocan is co-immunoprecipitated with anti-LFA-1 mabs. Bound endocan from 20 to 40×10⁶ Jurkat cells were incubated with a mab against endocan (MEC36), mabs against LFA-1 (HI111 and mab24), and anti-CD3 mab as control antibody. Bound endocan is expressed in pg per 10⁶ cells.
Immunoprecipitation of Jurkat lysates containing endocan or non glycanated endocan S137A/E was performed as previously described in Bechard D et al (J Immunol. 2001; 167:3099-3106) using anti-CD11 a mabs HI111 (BD Biosciences), and mab24 (a generous gift of Dr Nancy Hogg from Leukocyte Adhesion Laboratory, Cancer Research UK, London Research Institute, London, UK).

This is an account of results in patent US20150168399A1 (INSERM INSTITUT NATIONAL DE LA SANTE ET DE LA RECHERCHE …, published 2015).

T2 sequence (P20701 26-1170, chain 1 of 2): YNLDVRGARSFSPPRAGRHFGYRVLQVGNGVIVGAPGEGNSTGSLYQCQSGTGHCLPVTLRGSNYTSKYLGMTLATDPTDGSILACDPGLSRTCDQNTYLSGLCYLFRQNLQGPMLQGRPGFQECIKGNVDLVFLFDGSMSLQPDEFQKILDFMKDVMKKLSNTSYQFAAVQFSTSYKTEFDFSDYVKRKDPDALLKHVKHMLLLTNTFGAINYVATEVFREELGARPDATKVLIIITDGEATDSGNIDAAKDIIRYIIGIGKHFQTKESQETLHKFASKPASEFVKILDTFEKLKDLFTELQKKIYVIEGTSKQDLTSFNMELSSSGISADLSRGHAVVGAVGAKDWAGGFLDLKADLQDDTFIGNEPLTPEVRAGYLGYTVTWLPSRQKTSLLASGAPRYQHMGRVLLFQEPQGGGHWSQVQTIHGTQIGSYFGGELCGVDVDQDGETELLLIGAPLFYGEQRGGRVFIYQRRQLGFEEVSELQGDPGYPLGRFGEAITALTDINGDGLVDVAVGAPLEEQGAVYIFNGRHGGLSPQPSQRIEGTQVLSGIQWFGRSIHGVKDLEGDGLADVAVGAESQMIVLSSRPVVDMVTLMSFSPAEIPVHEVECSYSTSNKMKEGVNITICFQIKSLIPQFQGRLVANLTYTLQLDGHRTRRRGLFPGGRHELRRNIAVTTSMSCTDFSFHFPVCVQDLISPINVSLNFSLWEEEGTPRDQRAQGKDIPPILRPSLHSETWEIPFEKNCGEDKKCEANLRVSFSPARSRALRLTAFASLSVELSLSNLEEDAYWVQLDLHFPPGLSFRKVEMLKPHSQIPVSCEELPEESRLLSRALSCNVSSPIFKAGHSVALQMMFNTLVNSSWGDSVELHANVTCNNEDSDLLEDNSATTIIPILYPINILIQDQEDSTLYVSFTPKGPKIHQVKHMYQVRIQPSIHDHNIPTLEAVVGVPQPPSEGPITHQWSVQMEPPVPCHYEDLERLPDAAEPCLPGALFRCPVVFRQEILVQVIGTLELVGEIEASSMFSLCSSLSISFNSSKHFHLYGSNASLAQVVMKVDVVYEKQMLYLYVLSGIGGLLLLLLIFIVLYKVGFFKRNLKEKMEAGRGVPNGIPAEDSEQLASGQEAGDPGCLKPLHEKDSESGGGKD
T2 sequence (P05107 23-769, chain 2 of 2): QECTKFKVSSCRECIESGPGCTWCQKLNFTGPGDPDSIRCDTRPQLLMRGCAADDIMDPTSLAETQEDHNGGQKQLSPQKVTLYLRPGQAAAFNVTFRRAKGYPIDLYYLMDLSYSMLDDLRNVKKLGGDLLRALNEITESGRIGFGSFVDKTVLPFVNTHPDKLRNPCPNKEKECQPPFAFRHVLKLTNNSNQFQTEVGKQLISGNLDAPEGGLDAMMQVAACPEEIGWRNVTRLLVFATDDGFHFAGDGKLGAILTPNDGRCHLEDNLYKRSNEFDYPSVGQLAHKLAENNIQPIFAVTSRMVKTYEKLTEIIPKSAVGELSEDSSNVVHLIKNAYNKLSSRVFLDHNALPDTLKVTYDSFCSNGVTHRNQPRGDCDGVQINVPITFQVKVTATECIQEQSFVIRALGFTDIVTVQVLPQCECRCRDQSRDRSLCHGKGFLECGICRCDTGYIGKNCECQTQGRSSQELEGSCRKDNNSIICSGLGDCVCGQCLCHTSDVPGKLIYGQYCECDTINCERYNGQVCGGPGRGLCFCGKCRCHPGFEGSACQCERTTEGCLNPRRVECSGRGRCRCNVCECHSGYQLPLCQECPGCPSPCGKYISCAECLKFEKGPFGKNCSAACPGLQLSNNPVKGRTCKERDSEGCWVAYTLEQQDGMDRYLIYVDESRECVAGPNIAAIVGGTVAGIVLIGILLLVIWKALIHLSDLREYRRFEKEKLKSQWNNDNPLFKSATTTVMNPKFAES
Sequence of human leukocyte integrin LFA-1 (CD11a/CD18) on Jurkat cells or human NK cells (human) (P20701 26-1170, chain 1 of 2): as the sequence (P20701 26-1170, chain 1 of 2) above
Sequence of human leukocyte integrin LFA-1 (CD11a/CD18) on Jurkat cells or human NK cells (human) (P05107 23-769, chain 2 of 2, further chain): as the sequence (P05107 23-769, chain 2 of 2) above

On to “purified proteinase 3 (Sigma) (from UniProt P24158 28-248) (enzyme)”, for which the loss of the 50 kDa band of endocan in series [1] was 1 µg/mL.
With “monoclonal anti-human LFA-1 clone HI111 (antibody)”, the decrease in transendothelial migration of NK cells through TNF-stimulated HUVEC in series [2] is 82%.

B1: purified elastase (Sigma) (protein)
chain: IVGGRRARPHAWPFMVSLQLRGGHFCGATLIAPNFVMSAAHCVANVNVRAVRVVLGAHNLSRREPTRQVFAVQRIFENGYDPVNLLNDIVILQLNGSATINANVQVAQLPAQGRRLGNGVQCLAMGWGLLGRNRGIASVLQELNVTVVTSLCRRSNVCTLVRGRQAGVCFGDSGSPLVCNGLIHGIASFVRGGCASGLYPDAFAPVAQFVNWIDSIIQ
On to B1, for which the “minimal concentration of elastase required for near complete degradation of endocan” value in series [3] was determined as 0.1 µg/mL.

B2: purified cathepsin G (Sigma) (protein)
chain: IIGGRESRPHSRPYMAYLQIQSPAGQSRCGGFLVREDFVLTAAHCWGSNINVTLGAHNIQRRENTQQHITARRAIRHPQYNQRTIQNDIMLLQLSRRVRRNRNVNPVALPRAQEGLRPGTLCTVAGWGRVSMRRGTDTLREVQLRVQRDRQCLRIFGSYDPRRQICVGDRRERKAAFKGDSGGPLLCNNVAHGIVSYGKSSGVPPEVFTRVSSFLPWIRTTMRS
With B2, in series [3], the “minimal concentration of cathepsin G required to cleave completely endocan in 24 h” value is listed as 0.01 µg/mL and the “reduction of the detection of MEP14-bound endocan after two hours with cathepsin G at 37° C.” value is listed as “from 70% to 100%”.

B3: non glycanable endocan mutant (S137A/endocan) (ligand)
chain: WSNNYAVDCPQHCDSSECKSSPRCKRTVLDDCGCCRVCAAGRGETCYRTVSGMDGMKCGPGLRCQPSNGEDPFGEEFGICKDCPYGTFGMDCRETCNCQSGICDRGTGKCLKFPFFQYSVTKSSNRFVSLTEHDMAAGDGNIVREEVVKENAAGSPVMRKWLNPR
notes: Produced in 293 cells; lacks the glycan chain; also called non glycanated endocan S137A/E
For the molecule B3, the binding result in series [4] is “binds”.
